± gives the standard deviation of the averaged measurements.
B1: library; a variant is named by its letters at N, in order (parent)
chain: GCUGUCACCGGUGUAUUACCCUAGUGGUCGACCGGUCUGAUGAGUCUNNNNNNAGACGAAACAGC

Assays:
[1] = variants of: B1; experiment: normalized RNA/DNA level with ligand (relative to sTRSVctl = 100) (log10 (% of sTRSVctl)); ligand: hypoxanthine (xanthine aptamer); higher = less ribozyme self-cleavage, higher mRNA level; conditions: ligand concentration (+) RNA-Seq: 5 mM, HEK293T, reporter: mCherry (pCS4076), ligand present: yes
Method in brief: (§1)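 For each 6-well well, 4 µg of library plasmid encoding mCherry-linked ribozyme switches, or eGFP-linked ones in some ligand experiments, was transfected into HEK293T. Any ligand was added 1 h before transfection, and RNA was extracted with EDTA 72 h after it, then reverse-transcribed, amplified, barcoded and sequenced. RNA level was obtained by dividing RNA reads by DNA reads, normalizing to a spiked-in non-cleaving sequence or to the top sequences, then scaling and log-transforming. The top set was 25 sequences, scaling was ×100 with log10, and ≥100 DNA reads were required.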

[2] = variants of: B1; experiment: normalized RNA/DNA level without ligand (relative to sTRSVctl = 100) (log10 (% of sTRSVctl)); ligand: hypoxanthine (xanthine aptamer); higher = less ribozyme self-cleavage, higher mRNA level; conditions: HEK293T, reporter: mCherry (pCS4076), ligand present: no
Method in brief: as §1

Variant	normalized RNA/DNA level with ligand (log10) [1]	normalized RNA/DNA level without ligand (log10) [2]
GCUGUCACCGGUGUAUUACCCUAGUGGUCGACCGGUCUGAUGAGUCUUGGACAAGACGAAACAGC [UGGACA]	1.95 ± 0.021	1.812 ± 0.0084
GCUGUCACCGGUGUAUUACCCUAGUGGUCGACCGGUCUGAUGAGUCUUGGACCAGACGAAACAGC [UGGACC]	1.98 ± 0.049	1.95 ± 0.017
GCUGUCACCGGUGUAUUACCCUAGUGGUCGACCGGUCUGAUGAGUCUCGGACUAGACGAAACAGC [CGGACU]	1.95 ± 0.042	1.79 ± 0.024
GCUGUCACCGGUGUAUUACCCUAGUGGUCGACCGGUCUGAUGAGUCUCGGACGAGACGAAACAGC [CGGACG]	2.01 ± 0.03	1.72 ± 0.043
GCUGUCACCGGUGUAUUACCCUAGUGGUCGACCGGUCUGAUGAGUCUCGGACCAGACGAAACAGC [CGGACC]	1.94 ± 0.037	1.94 ± 0.049
GCUGUCACCGGUGUAUUACCCUAGUGGUCGACCGGUCUGAUGAGUCUUGCUUUAGACGAAACAGC [UGCUUU]	1.96 ± 0.064	1.94 ± 0.0096
GCUGUCACCGGUGUAUUACCCUAGUGGUCGACCGGUCUGAUGAGUCUUGCUUGAGACGAAACAGC [UGCUUG]	1.923 ± 0.019	1.85 ± 0.091
GCUGUCACCGGUGUAUUACCCUAGUGGUCGACCGGUCUGAUGAGUCUUGCUUAAGACGAAACAGC [UGCUUA]	1.937 ± 0.019	1.95 ± 0.046
GCUGUCACCGGUGUAUUACCCUAGUGGUCGACCGGUCUGAUGAGUCUUGCUUCAGACGAAACAGC [UGCUUC]	1.988 ± 0.0048	1.96 ± 0.045
GCUGUCACCGGUGUAUUACCCUAGUGGUCGACCGGUCUGAUGAGUCUAGGAAUAGACGAAACAGC [AGGAAU]	1.906 ± 0.017	1.739 ± 0.0039
GCUGUCACCGGUGUAUUACCCUAGUGGUCGACCGGUCUGAUGAGUCUCGCUCUAGACGAAACAGC [CGCUCU]	2.02 ± 0.061	1.93 ± 0.048
GCUGUCACCGGUGUAUUACCCUAGUGGUCGACCGGUCUGAUGAGUCUGGCUGAAGACGAAACAGC [GGCUGA]	2.01 ± 0.032	1.87 ± 0.026
GCUGUCACCGGUGUAUUACCCUAGUGGUCGACCGGUCUGAUGAGUCUGGCUGCAGACGAAACAGC [GGCUGC]	1.92 ± 0.048	1.58 ± 0.039
GCUGUCACCGGUGUAUUACCCUAGUGGUCGACCGGUCUGAUGAGUCUGGCUGUAGACGAAACAGC [GGCUGU]	1.96 ± 0.025	1.95 ± 0.046
GCUGUCACCGGUGUAUUACCCUAGUGGUCGACCGGUCUGAUGAGUCUGGCUGGAGACGAAACAGC [GGCUGG]	1.9543 ± 0.0009	1.66 ± 0.048
GCUGUCACCGGUGUAUUACCCUAGUGGUCGACCGGUCUGAUGAGUCUGGGAACAGACGAAACAGC [GGGAAC]	1.964 ± 0.016	1.724 ± 0.01
GCUGUCACCGGUGUAUUACCCUAGUGGUCGACCGGUCUGAUGAGUCUGGCUUAAGACGAAACAGC [GGCUUA]	1.967 ± 0.014	1.88 ± 0.025
GCUGUCACCGGUGUAUUACCCUAGUGGUCGACCGGUCUGAUGAGUCUGGCUUGAGACGAAACAGC [GGCUUG]	1.93 ± 0.071	1.66 ± 0.04
GCUGUCACCGGUGUAUUACCCUAGUGGUCGACCGGUCUGAUGAGUCUGGCUUCAGACGAAACAGC [GGCUUC]	1.99 ± 0.03	1.98 ± 0.041
GCUGUCACCGGUGUAUUACCCUAGUGGUCGACCGGUCUGAUGAGUCUGGCUUUAGACGAAACAGC [GGCUUU]	2.025 ± 0.0095	1.982 ± 0.006
GCUGUCACCGGUGUAUUACCCUAGUGGUCGACCGGUCUGAUGAGUCUGGGACCAGACGAAACAGC [GGGACC]	1.98 ± 0.069	1.86 ± 0.052

Reference: the supplement of paper PMC6757056
